Laboratory results reported in patent US6555734B2, “Genetic sequences encoding substrate-specific dihydroflavonol 4-reductase and uses therefor” (Korea Kumho Petrochemical Co., Ltd., priority 2000, dated 2003).
Where a chain is given by its changes, count along the chain named. Names may count otherwise. “Also recorded” adds a separate entry of the source.

Experiments:
[1] = tested on: WV Petunia line (dfr^−/−, F3′5′H^+/+); test: TLC analysis of pigments in WV crossed lines; format: in vivo
Excerpt: (§1) In accordance with the present invention, a DHK-specific DFR was developed by replacing asparagine at 134th amino acid residue of Gerbera DFR to leucine. […] Since the W80 Petunia line we transformed accumulates mainly DHK with small amount of DHQ and DHM, it was not clear if the N134L mutant DFR completely lost the capability of reducing DHQ and DHM. To investigate if the N134L mutant DFR produces only pelargonidin in the presence of fully active flavonoid-3′-hydroxylase (F3′H) or flavonoid-3′,5′-hydroxylase (F3′5′H), we crossed our N134L transformant with Petunia lines that are either dfr^−/−/F3′H^+/+ (WR line) or dfr^−/−/F3′5′H^+/+ (WV line). […] To determine the pigments produced in these crossed lines, we performed TLC analysis.
(§2) Gerbera DFR genes containing one amino acid point mutation were made in a similar manner as the chimeric genes. The 5′ region was synthesized using a primer having the Gerbera DFR starting methionine and a primer containing a single codon change. The 3′ region was made with a complementary primer with the single codon change and a primer having the stop codon of Gerbera DFR. The full length mutant sequence was assembled like the chimeric genes above. Each point mutant was cloned into a vector having the 35S CaMV promoter and NOS terminator. The mutagenized region of each mutant DFR was sequenced to ensure the correct residue was changed. Point mutants were then transformed into the W80 Petunia line. The transformants expressing the DFR genes were crossed with WR Petunia line (dfr^−/−, F3′H^+/+) and WV Petunia line (dfr^−/−, F3′5′H^+/+) to determine the substrate specificity of the mutated DFR. Mutations in other loci were not determined in these two Petunia lines.
(§3) Anthocyanidins were separated on cellulose TLC plates as described (Johnson, et al. Plant J. 19:81-85 (1999)). Corollas were sometimes stored at 4° C. for extended periods of time in methanol-0.5% HCl solution. Before adding iso-amylalcohol, the flower extracts were quantified at 530 nm to ensure uniform loading on the TLC plate. […]

[2] = tested on: WR Petunia line (dfr^−/−, F3′H^+/+); test: Flower colour of WR Petunia line crossed with DFR transformants; format: in vivo
Excerpt: as §1
(§4) Gerbera DFR genes containing one amino acid point mutation were made in a similar manner as the chimeric genes. The 5′ region was synthesized using a primer having the Gerbera DFR starting methionine and a primer containing a single codon change. The 3′ region was made with a complementary primer with the single codon change and a primer having the stop codon of Gerbera DFR. The full length mutant sequence was assembled like the chimeric genes above. Each point mutant was cloned into a vector having the 35S CaMV promoter and NOS terminator. […] Mutations in other loci were not determined in these two Petunia lines.

[3] = tested on: WV Petunia line (dfr^−/−, F3′5′H^+/+); test: Flower colour of WV Petunia line crossed with DFR transformants; format: in vivo
Excerpt: as §1, §4

[4] = tested on: white flowered Petunia mutant (W80); format: in vivo; settings: W80 line (lacks DFR activity, accumulates primarily DHK); DFR gene under 35S CaMV promoter
[5] = tested on: WR Petunia line (dfr^−/−, F3′H^+/+); test: TLC analysis of pigments in WR crossed lines; format: in vivo
Excerpt: as §1, §2, §3

[6] = from literature; cited from earlier work
[7] = tested on: white flowered Petunia mutant (W80); test: TLC analysis of anthocyanidins produced in transgenic W80 Petunia flowers; format: in vivo; settings: W80 line, anthocyanidins on cellulose TLC against pelargonidin, cyanidin, delphinidin standards
Excerpt: In accordance with the present invention, the substrate specificity determining region was identified by determining the abilities of three chimeric DFRs to catalyze the reduction of DHK in the transgenic Petunia lines. In order to identify the region of DFR that determines its substrate specificity, we constructed chimeric DFR genes using cDNA sequences of Petunia (SEQ ID NO: 35) and Gerbera (SEQ ID NO; 1). […] We built three different chimeric genes using regions of high homology as common PCR primer sites (FIG. 1A). The chimeric genes were transformed into a white flowered Petunia mutant (W80) that lacks DFR activity and accumulates primarily DHK but with appreciable amounts of dihydroquercetin (DHQ) and dihydromyricetin (DHM) (Huits et at, 1994). […] The hue of Chimera 1 flowers is very similar to the inbred Petunia mutant RLO1, which has functional DFR activity and accumulates DHK. […] The identified region (approx. 40 amino acids) is highly variable in DFRs from different plant species. By excluding the completely conserved amino acid sequences at the borders, the identified region is narrowed down to 26 amino acids. Hereinafter, this region is referred as substrate specificity determining region.
Anthocyanidins were separated on cellulose TLC plates as described (Johnson, et al. Plant J. 19:81-85 (1999)). Corollas were sometimes stored at 4° C. for extended periods of time in methanol-0.5% HCl solution. Before adding iso-amylalcohol, the flower extracts were quantified at 530 nm to ensure uniform loading on the TLC plate. Anthocyanin standards were purchased from Apin Chemicals Ltd. (Oxfordshire, England).

[8] = Substrate specificity of DFR (reduction of dihydroflavonols); settings: concluded from flower colour and TLC data of WR and WV crosses
Excerpt: as §1, §4

B1: Gerbera DFR: wild type Gerbera dihydroflavonol 4-reductase (SEQ ID NO: 2) (protein)
chain: MEEDSPATVCVTGAAGFIGSWLVMRLLERGYVVHATVRDPGDLKKVKHLLELPKAQTNLKLWKADLTQEGSFDEAIQGCHGVFHLATPMDFESKDPENEIIKPTIEGVLSIIRSCVKAKTVKKLVFTSSAGTVNGQEKQLHVYDESHWSDLDFIYSKKMTAWMYFVSKTLAEKAAWDATKGNNISFISIIPTLVVGPFITSTFPPSLVTALSLITGNEAHYSIIKQGQYVHLDDLCECHIYLYENPKAKGRYICSSHDATIHQLAKIIKDKWPEYYIPTKFPGIDEELPIVSFSSKKLIDTGFEFKYNLEDMFKGAIDTCREKGLLPYSTIKNHINGNHVNGVHHYIKNNDDDHEKGLLCCSKEGQ
pigments accumulated in crossed line (TLC) ([1]; listed as DFR^WT): accumulated mainly delphinidin
pigments accumulated in crossed line (TLC) ([1]; listed as wild type DFR): delphinidin
flower color of crossed line [2]: red colored flowers
flower color of crossed line [3]: violet colored flowers
flower color of transgenic Petunia [4]: orange/bric-red color
pigments accumulated in crossed line (TLC) ([5]; listed as DFR^WT): mainly accumulated cyanidin
pigments accumulated in crossed line (TLC) ([5]; listed as wild type DFR): cyanidin
substrate use among DHK, DHQ and DHM [6]: able to catalyze dihydrokaempferol (DHK)
pigments produced in transgenic Petunia flowers (TLC) ([7]; listed as native Gerbera DFR): production of appreciable amounts of cyanidin and delphinidin in addition to pelargonidin
pigments produced in transgenic Petunia flowers (TLC) ([7]; listed as wild type Gebera DFR): accumulated significant amount of cyanidin and delphinidin in addition to perlargonidin

B2: N134L: DFR that has leucine instead of aspargine at the 134th position of Gerbera DFR (SEQ ID NO 4) (protein)
chain: B1 chain with N134L
substrate preference among DHK, DHQ and DHM [8]: preferentially utilizes DHK as a substrate over DHQ and cannot reduce DHM
pigments accumulated in crossed line (TLC) ([1]; listed as DFR^N134L): did not accumulated any pigment other than background level of delphinidin; also recorded: no appreciable amounts of anthocyanidins accumulated other than a background level of delphinidin
flower color of crossed line [2]: orange colored flowers
flower color of crossed line [3]: white flowers
flower color of transgenic Petunia [4]: slightly different colored flowers
pigments accumulated in crossed line (TLC) ([5]; listed as DFR^N134L): accumulated pelargonidin and cyanidin; also recorded: accumulated a large amount of pelargonidin
pigments produced in transgenic Petunia flowers (TLC) [7]: accumulated mostly pelargonidin
pigments produced in transgenic Petunia flowers (TLC) ([7]; listed as DHK-specific DFR): production of only pelargonidin

B3: maize DFR: maize DFR introduced into a Petunia mutant line (Meyer et al.) (protein, UniProt P51108 1-357, looked up)
Dihydroflavonol 4-reductase: MERGAGASEKGTVLVTGASGFVGSWLVMKLLQAGYTVRATVRDPANVGKTKPLMDLPGATERLSIWKADLAEEGSFHDAIRGCTGVFHVATPMDFLSKDPENEVIKPTVEGMISIMRACKEAGTVRRIVFTSSAGTVNLEERQRPVYDEESWTDVDFCRRVKMTGWMYFVSKTLAEKAALAYAAEHGLDLVTIIPTLVVGPFISASMPPSLITALALITGNAPHYSILKQVQLIHLDDLCDAEIFLFENPAAAGRYVCSSHDVTIHGLAAMLRDRYPEYDVPQRFPGIQDDLQPVRFSSKKLQDLGFTFRYKTLEDMFDAAIRTCQEKGLIPLATAAGGDGFASVRAPGETEATIGA
substrate use among DHK, DHQ and DHM [6]: can convert all three dihydroflavonols to their leucocyanidins
